{
  "source": "patent US9193965B2",
  "about": "“Acetolactate synthase having 2-ketoisovalerate decarboxylase activity and uses thereof” (The Regents of the University of California, priority 2010, dated 2015)",
  "proteins": {"B1": {"name": "Bacillus subtilis acetolactate synthase AlsS, wild type (Q at residue 487), SEQ ID NO: 2 (Bacillus subtilis subsp. subtilis str. 168) (protein)", "chain": "VLTKATKEQKSLVKNRGAELVVDCLVEQGVTHVFGIPGAKIDAVFDALQDKGPEIIVARHEQNAAFMAQAVGRLTGKPGVVLVTSGPGASNLATGLLTANTEGDPVVALAGNVIRADRLKRTHQSLDNAALFQPITKYSVEVQDVKNIPEAVTNAFRIASAGQAGAAFVSFPQDVVNEVTNTKNVRAVAAPKLGPAADDAISAAIAKIQTAKLPVVLVGMKGGRPEAIKAVRKLLKKVQLPFVETYQAAGTLSRDLEDQYFGRIGLFRNQPGDLLLEQADVVLTIGYDPIEYDPKFWNINGDRTIIHLDEIIADIDHAYQPDLELIGDIPSTINHIEHDAVKVEFAEREQKILSDLKQYMHEGEQVPADWKSDRAHPLEIVKELRNAVDDHVTVTCDIGSHAIWMSRYFRSYEPLTLMISNGMQTLGVALPWAIGASLVKPGEKVVSVSGDGGFLFSAMELETAVRLKAPIVHIVWNDSTYDMVAFQQLKKYNRTSAVDFGNIDIVKYAESFGATGLRVESPDQLADVLRQGMNAEGPVIIDVPVDYSDNINLASDKLPKEFGELMKTKAL"}, "B2": {"name": "Bacillus subtilis acetolactate synthase AlsS variant Q487S (Bacillus subtilis subsp. subtilis str. 168; Q486S) (protein)", "chain": "B1 chain with Q487S"}, "B3": {"name": "Bacillus subtilis acetolactate synthase AlsS variant Q487G (Bacillus subtilis subsp. subtilis str. 168; Q486G) (protein)", "chain": "B1 chain with Q487G"}, "B4": {"name": "Bacillus subtilis acetolactate synthase AlsS variant Q487A, SEQ ID NO: 10 (Bacillus subtilis subsp. subtilis str. 168; Q486A) (protein)", "chain": "B1 chain with Q487A"}},
  "substrate": "CC(=O)C(=O)O",
  "test": "purified protein, by the assay type",
  "details": "pH 7.0, 37° C., 0.1 mM TPP, ± standard deviation",
  "note": "Numbering of substitutions follows the chain as printed. Names and notes keep the numbering of the source.",
  "protocol": "The wild type AlsS and AlsS variants were synthesized from a His-tag plasmid in E. coli strain BL21 Star™ (DE3) (Invitrogen (Carlsbad, Calif.)) followed by purification with Ni-nitrilotriacetic acid (NTA) spin columns (Qiagen (Valencia, Calif.)). Protein concentrations were determined by the Bradford assay (Bio-Rad (Hercules, Calif.)).\nAls enzyme activity. An enzyme assay for Als activity of AlsS was carried out in 1 ml of morpholinepropanesulfonic acid (MOPS) buffer (pH 7.0) containing 80 nM AlsS, 100 mM MOPS (pH 7.0), 1 mM MgCl2, 0.1 mM TPP, 10 mM acetate, and various concentrations of pyruvate at 37° C. for 10 min. The reaction was terminated by acidification of the solution with 0.1 ml of 50% H2SO4. The mixture was incubated for an additional 25 min at 37° C. to allow for the acid hydrolysis of the acetolactate to acetoin. […] One unit of enzyme activity was defined as the amount of enzyme that converts 1 μmol of substrate into product in 1 minute under these conditions. The Km values for pyruvate and the Vmax were extrapolated after nonlinear regression of the experimental points with the Gauss-Newton method using Matlab.",
  "data": [
    {"protein": "B1", "values": [
      {"measurement": "Km", "setting": "other: wild type", "result": "13.6 ± 0.8", "unit": "mM"},
      {"measurement": "kcat", "setting": "other: wild type", "result": "121 ± 13", "unit": "s⁻¹"}
    ]},
    {"protein": "B2", "values": [
      {"measurement": "Km", "setting": "other: Q487S", "result": "1.1 ± 0.6", "unit": "mM"},
      {"measurement": "kcat", "setting": "other: Q487S", "result": "11 ± 6", "unit": "s⁻¹"}
    ]},
    {"protein": "B3", "values": [
      {"measurement": "Km", "setting": "other: Q487G", "result": "1.6 ± 0.4", "unit": "mM"},
      {"measurement": "kcat", "setting": "other: Q487G", "result": "11 ± 5", "unit": "s⁻¹"}
    ]},
    {"protein": "B4", "values": [
      {"measurement": "Km", "setting": "other: Q487A", "result": "8.7 ± 0.5", "unit": "mM"},
      {"measurement": "kcat", "setting": "other: Q487A", "result": "58 ± 8", "unit": "s⁻¹"}
    ]}
  ]
}
